Test system: CCn1c(=NN=c2sc3cc(S(=O)(=O)O)ccc3n2CC)sc2cc(S(=O)(=O)O)ccc21
Assay: purified protein
Settings: 40 μM H2O2, 100 nM enzyme, 50 mM phosphate-citrate pH 5.0, room temperature

| Substance | Km | kcat | kcat/Km |
| --- | --- | --- | --- |
| KpDyP (B-type Klebsiella pneumoniae dye-decolorizing peroxidase) (Klebsiella pneumoniae; W18F) | 54 ± 8 µM | 4.7 s⁻¹ | 86000 M⁻¹ s⁻¹ |
| KpDyP (B-type Klebsiella pneumoniae dye-decolorizing peroxidase) (Klebsiella pneumoniae; W18F/Y92F) | 84 ± 8 µM | 6.5 s⁻¹ | 77000 M⁻¹ s⁻¹ |
| KpDyP (B-type Klebsiella pneumoniae dye-decolorizing peroxidase) (Klebsiella pneumoniae; Y237F) | 36 ± 7 µM | 4.6 s⁻¹ | 125000 M⁻¹ s⁻¹ |
| KpDyP (B-type Klebsiella pneumoniae dye-decolorizing peroxidase) (Klebsiella pneumoniae; Y247F) | 270 ± 16 µM | 8.7 s⁻¹ | 33000 M⁻¹ s⁻¹ |
| KpDyP (B-type Klebsiella pneumoniae dye-decolorizing peroxidase) (Klebsiella pneumoniae; Y247F/Y92F) | 345 ± 73 µM | 12.8 s⁻¹ | 37000 M⁻¹ s⁻¹ |

From article PMC8154254, “On the Track of Long-Range Electron Transfer in B-Type Dye-Decolorizing Peroxidases: Identification of a Tyrosyl Radical by Computational Prediction and Electron Paramagnetic Resonance Spectroscopy” (Biochemistry, 2021)
